Source: patent US20230121197A1, “ANTIBODIES SPECIFICALLY BINDING THE CARBOXYMETHYLATED CATALYTIC SUBUNIT OF PROTEIN PHOSPHATASE 2A” (Medizinische Universität Wien, priority 2020, published 2023)

B1: 7C10-C5 monoclonal antibody (antibody, V domains shown)
VH: DVQLQESGPGLVKPSQSLSLTCSVTGYSITSGYYWNWIRQFPGNKLEWMGYISYDGSNNYNPSLKNRISITRDTSKNQFFLKLNSVTTEDTATYYCAGRFAYWGQGTLVTVSA
VL: DVLMTQTPLSLPVSLGDQASISCRSSQSIVHSNGNTYLEWYLQKPGQSPKLLIYKVSNRFSGVPDRFSGSGSGTDFTLKINRVEAEDLGVYYCFQGSHVPWTFGGGTKLEIK
notes: Used as hybridoma culture supernatant (ELISA, Western blot, IHC) or at 50 µg/mL (SPR); also called 7C10 X63; clone 7C10-C5
B2: 7C10-C5: α-carboxymethylation specific mouse monoclonal IgG1 antibody from single clone hybridoma 7C10-C5 (DSM ACC3350) (antibody)
heavy: MYRMQLLSCIALSLALVTNSDVQLQESGPGLVKPSQSLSLTCSVTGYSITSGYYWNWIRQFPGNKLEWMGYISYDGSNNYNPSLKNRISITRDTSKNQFFLKLNSVTTEDTATYYCAGRFAYWGQGTLVTVSAAKTTAPSVYPLAPVCGDTTGSSVTLGCLVKGYFPEPVTLTWNSGSLSSGVHTFPAVLQSDLYTLSSSVTVTSSTWPSQSITCNVAHPASSTKVDKKIEPRGPTIKPCPPCKCPAPNLLGGPSVFIFPPKIKDVLMISLSPIVTCVVVDVSEDDPDVQISWFVNNVEVHTAQTQTHREDYNSTLRVVSALPIQHQDWMSGKEFKCKVNNKDLPAPIERTISKPKGSVRAPQVYVLPPPEEEMTKKQVTLTCMVTDFMPEDIYVEWTNNGKTELNYKNTEPVLDSDGSYFMYSKLRVEKKNWVERNSYSCSVVHEGLHNHHTTKSFSRTPGK
light: MDMRVPAQLLGLLLLWLSGARCDVLMTQTPLSLPVSLGDQASISCRSSQSIVHSNGNTYLEWYLQKPGQSPKLLIYKVSNRFSGVPDRFSGSGSGTDFTLKINRVEAEDLGVYYCFQGSHVPWTFGGGTKLEIKADAAPTVSIFPPSSEQLTSGGASVVCFLNNFYPKDINVKWKIDGSERQNGVLNSWTDQDSKDSTYSMSSTLTLTKDEYERHNSYTCEATHKTSTSPIVKSFNRNEC
modifications: Amino acid sequence of the recombinant 7C10-C5 heavy chain; Amino acid sequence of the recombinant 7C10-C5 light chain

Legend:
[1] = biological target: T1, HA-tagged yeast PP2Ac (PPH21) (Saccharomyces cerevisiae, UniProt P23594); assay: Western blot of yeast BY4741 strain lysates (wt, ppe1Δ, ppm1Δ, NaOH); type: binding
T1 construct: expressed in transfected cells; host or cells: yeast BY4741 (wildtype, ppe1Δ, ppm1Δ)
From the text: Yeast strain BY4741 expressing HA-tagged yeast PP2Ac (PPH21) was used as a background. Of note, the 6 C-terminal amino acids of mammalian/human PP2Ac are identical to the yeast PP2A catalytic subunit PPH21. The BY4741 wildtype (WT) strain contained carboxymethylated PP2Ac and non-carboxymethylated PP2Ac. The BY4741 ppe1Δ strain contained high levels of carboxymethylated PP2Ac because the ppe1 gene was deleted. The BY4741 ppm1Δ strain lacked carboxymethylated PP2Ac because the ppm1 gene was deleted. Said yeast strains were further used for the characterization of monoclonal antibodies, i.e. 7C10-C5, as described further below. […]
Yeast cells were grown at 30° C. to exponential growth phase in drop-out complete medium (2.3 g/l Bacto yeast nitrogen base [Difco, 233520], 20 mg/l adenine, 20 mg/l L-arginine, 15 mg/l L-tyrosine, 15 mg/l L-isoleucine, 25 mg/l L-phenylalanine, 50 mg/l L-glutamic acid, 50 mg/l L-aspartic acid, 100 mg/l L-threonine, 200 mg/l L-serine, 75 mg/l L-valine, 75 mg/l L-methionine, 90 mg/l L-lysine, 20 mg/l uracil, 30 mg/l L-histidine, 0.05 M ammoniumsulfate) lacking L-leucine and containing 2% w/v glucose. Yeast cells were collected by centrifugation at 3,500 rpm at 4° C. in a Beckmann GS-6R centrifuge, washed with ice-cold water and the optical density at 600 nm (0D^600) was measured in a Hitachi U-2000 spectrophotometer. […]

PP4 = assay: Summary of cross-reactivities of C-terminal PP2Ac antibodies (Table 4), PP4; conditions: antibodies screened for binding methylated PP2Ac
From the text: Examples of antibodies with a preference for non-methylated PP2Ac are mouse monoclonal antibody 4B7 (Yu (2001), Mol Biol Cell 12, 185-199), mouse monoclonal antibody 1D7 generated by the Ogris lab but also the rabbit monoclonal E155 antibody from Abeam and the mouse monoclonal F-8 from SCBT that were thought to be specific for pTyr^307.

[2] = biological target: α-carboxymethylated PP2Ac (Homo sapiens, UniProt P67775); assay: IHC specificity validation (NaOH treatment of slides); set-up: NaOH treatment to chemically remove the methyl group from the methylated PP2A-C; from tissue; host or cells: de-paraffinized tissue slides; conditions: slides incubated in 200 mM NaOH
Protocol: Immunohistochemical staining was performed on the DAKO Autostainer (DAKO, Carpinteria, Calif.) using Envision+ or liquid streptavidin-biotin and diaminobenzadine (DAB) as the chromogen. De-paraffinized sections were labeled with mouse monoclonal antibody 7C10-C5 (1:200) overnight at 4 C. Microwave 10 mM Tris HCl, pH9 containing 1 mM EDTA epitope retrieval was used prior to staining. Appropriate negative (no primary antibody) and positive controls (pancreas) were stained in parallel with each set of slides studied. Peptide competition studies were performed using 2 peptides ([…]*) (SEQ ID NO:115) differing in the methylation status at position L (marked with a *); FIG. 13E: Peptides were incubated at ambient temperature for 60 mins at 10-1000× molar ratios before being applied to the slide. FIG. 13F: Before being stained, slides were incubated in freshly made 200 mM NaOH for 10 mins at 4° C. and then neutralized by several washes in TBST.
Stained slides were scanned using an APERIO AT2 (Leica) and the digital images imported into QuPath (Bankhead et al., 2017). TMA cores were analyzed for percentage of cells staining and intensity. In FIGS. 13E and F, higher visibility of the dark cell nuclei indicates weaker α-carboxymethylated PP2Ac staining.

T1 sequence (P23594 whole entry): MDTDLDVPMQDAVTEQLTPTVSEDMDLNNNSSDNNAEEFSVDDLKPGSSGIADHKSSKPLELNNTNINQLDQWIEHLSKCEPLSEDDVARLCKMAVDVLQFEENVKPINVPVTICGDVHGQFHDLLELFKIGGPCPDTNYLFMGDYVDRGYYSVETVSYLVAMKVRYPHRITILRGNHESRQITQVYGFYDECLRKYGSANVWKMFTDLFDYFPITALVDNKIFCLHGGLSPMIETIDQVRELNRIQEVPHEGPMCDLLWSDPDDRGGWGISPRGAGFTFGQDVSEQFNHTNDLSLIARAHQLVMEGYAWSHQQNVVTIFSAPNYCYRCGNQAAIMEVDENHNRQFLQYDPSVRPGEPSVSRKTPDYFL
α-carboxymethylated PP2Ac, sequence (P67775 whole entry): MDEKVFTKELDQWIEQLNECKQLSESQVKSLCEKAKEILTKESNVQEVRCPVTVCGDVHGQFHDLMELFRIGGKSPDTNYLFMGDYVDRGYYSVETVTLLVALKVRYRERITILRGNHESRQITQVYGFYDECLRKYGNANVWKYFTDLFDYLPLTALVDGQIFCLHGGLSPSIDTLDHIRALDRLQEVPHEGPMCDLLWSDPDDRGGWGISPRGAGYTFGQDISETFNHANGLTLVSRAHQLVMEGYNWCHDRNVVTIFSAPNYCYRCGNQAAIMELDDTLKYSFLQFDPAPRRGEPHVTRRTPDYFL

Molecule | detection of PP2Ac in ppe1Δ (carboxymethylated) versus ppm1Δ / NaOH treated (non-carboxymethylated) lysates [1] | PP4 meLeu^307 (PP4) | IHC staining after chemical removal of the methyl group [2]
B1 | detected PP2Ac only in the BY4741 ppe1Δ strain |  | 
B2 | only detected carboxymethylated PP2Ac | — (— <15%) | diminished staining upon treatment with NaOH
